# Patent US20180280504A1, “GLYCAN-INTERACTING COMPOUNDS AND METHODS OF USE” (SIAMAB THERAPEUTICS, INC., priority 2014, published 2018)
# Changes are numbered by the printed parent chain. Names may count otherwise.
# B1: 8C11: anti-STn mouse monoclonal, IgG2b κ, from mouse #4407; VH SEQ ID NO: 8, VL SEQ ID NO: 9 (antibody, V domains shown)
# VH: QVQLKESGPGLVAPSQSLSITCTVSGFSLTSYGVSWVRQPPGKGLEWLGVIWGDGSTNYHSALISRLIISKDNSKSQVFLKLNSLQTDDTATYYCTKGFTYWGQGTLVTVSA
# VL: QIVLTQSPAIMSASPGEKVTMTCSASSSVSYMHWYQQKSGTSPKRWIFDTSKLASGVPARFSGSGSGTSYSLTISSMEAEDAATYYCQQWSSNLLTFGAGTKLELK
# B2: 7G9: anti-STn mouse monoclonal, IgG2b κ, from mouse #4407; VH SEQ ID NO: 12, VL SEQ ID NO: 9 (antibody, V domains shown)
# VH: B1 VH with S17N, S35N, D72E, D88N, T100V
# VL: B1 VL
# B3: S3F: 3F1 variable domains combined with IgG2a constant domains; heavy chain SEQ ID NO: 63, light chain SEQ ID NO: 64 (antibody)
# heavy: QVQLQQSDAELVKPGASVKISCKASGYTFTDHAIHWVKQKPEQGLDWIGYISPGNGDIKYNEKFKDKVTLTADKSSSTACMHLNSLTSEDSAVYFCKRSLLALDYWGQGTTLTVSSAKTTAPSVYPLAPVCGDTTGSSVTLGCLVKGYFPEPVTLTWNSGSLSSGVHTFPAVLQSDLYTLSSSVTVTSSTWPSQSITCNVAHPASSTKVDKKIEPRGPTIKPCPPCKCPAPNLLGGPSVFIFPPKIKDVLMISLSPIVTCVVVDVSEDDPDVQISWFVNNVEVHTAQTQTHREDYNSTLRVVSALPIQHQDWMSGKEFKCKVNNKDLPAPIERTISKPKGSVRAPQVYVLPPPEEEMTKKQVTLTCMVTDFMPEDIYVEWTNNGKTELNYKNTEPVLDSDGSYFMYSKLRVEKKNWVERNSYSCSVVHEGLHNHHTTKSFSRTPGK
# light: DIVMTQSHKFMSTSVGDRVSITCKASQDVGTNIAWYQQKPGRSPKVLIYSASTRHTGVPDRFTGSGSGTDFTLTISNVQSEDLTDYFCQQYSSFPLTFGVGTKLELKRADAAPTVSIFPPSSEQLTSGGASVVCFLNNFYPKDINVKWKIDGSERQNGVLNSWTDQDSKDSTYSMSSTLTLTKDEYERHNSYTCEATHKTSTSPIVKSFNRNEC
# Columns and labels:
# [1] = test system: MDA-MB-231 parental cells (MDA-STn−); assay: Flow cytometry-based analysis of antibody binding, parental cells; design: species or system human
# Procedure: Flow cytometry-based analysis is carried out to elucidate the curve-dose response for binding of antibodies to cell surface antigens. For these analyses, three cell lines are employed.
# MDA-MB-231 cells are human breast cancer cells. They are grown in Earle's Minimum Essential Medium supplemented with 10% fetal calf serum (FCS), 100 μg/ml penicillin, 100 UI/ml streptomycin and 45 μg/ml gentamycin. MCF-7 cells are also human breast cancer cells and are grown under the same conditions as MDA-MB-231 cells. Stably transfected versions of MDA-MB-231 and MCF-7 cells (clone TAH3.P10 for MDA-MB-231 cells and clone A12.1 for MCF-7 cells) that over express GalNAc α2,6-sialyltransferase (ST6GalNAc 1,) are also cultured under the same conditions with the exception of an added 1 mg/ml of G418 to support cells expressing the transgene. ST6GalNAc 1 is an enzme capable of sialylating GalNAc. […]
# For analysis, cells are harvested using StemPro Accutase (Life Technologies, Carlsbad, Calif.) and washed with PBS comprising 5% FBS before pelleting by light centrifugation. Cell numbers and viability are determined by trypan blue dye exclusion analysis and cell concentrations are adjusted to 5×10^6 cells/ml in PBS with 5% FBS. […] Cells are combined with 50 μl solutions of antibody being analyzed or control antibodies and incubated for 1 hour at 4° C. […]
# [2] = E3-STn allograft model, average weight of mice; assay type: in vivo, mouse
# Procedure: Balb/c mice were used as part of the test system. 50 female mice were inoculated with E3-STn cells to cause STn-expressing tumor formation. Mice were maintained under pathogen-free conditions with irradiated feed and autoclaved water.
# The average weight of mice in each treatment group was also determined on days 1, 4, 6, 8, 11, 13, 15, 18, 20, 22, 26, 27, 29, 32, 34, 36, 39 and 41 following the first administration of each test article (see the following Table). The percent gain or loss over initial weight values is listed in parentheses.
# [3] = test system: MDA-MB-231-STn Human Breast Tumor Xenograft; assay: MDA-MB-231-STn xenograft model, clinical observations of tumors; assay type: in vivo, mouse; conditions: 5 mg/kg i.p. once weekly
# Procedure: Animals were inoculated in the subcutaneous right flank with 5×10^6 breast tumor cells (MDA-MB-231-STn) in matrigel, mean tumor size was 175-225 mm^3 at study initiation. Animals were given either vehicle or antibody drug conjugates (5 mg/kg) by intraperitoneal injection once weekly. Tumor volume and percent body weight change were determined once weekly until study termination. The study was terminated when the tumor in the vehicle control animal reached a mean tumor weight ≥1500 mm^3. SE refers to “standard error.”
# Clinical observations of tumor shape, size and disposition were noted throughout the study.
# [4] = Immunohistochemical staining of normal and tumor tissues (TMA); conditions: tissue microarray slides
# Procedure: The procedure for IHC staining includes the following steps: a). obtain tissue samples and prepare specimen slides; b). prepare tissue samples for IHC staining; i. perform antigen retrieval with Diva antigen retrieval solution for 30 minutes at 95° C.; or treat slides with 250 mU/mL neuraminidase in 50 mM sodium acetate, pH 5.5 for 2.5 hours at 37° C.; ii. rinse all treated slides twice with Tris-buffered saline auto-wash (TBS-AW); iii. apply Sniper protein block to all slides for 20 minutes to reduce non-specific binding and rinse twice in TBS-AW; c). perform antibody staining; i. incubate the pretreated slides with the primary antibody. For example, anti-STn antibody S3F is applied (10 or 30 ug/mL) for 60 minutes; ii. rinse twice in TBS-AW; iii. block endogenous peroxidase with peroxidase 1 for 10 minutes; iv. rinse twice with TBS-AW; v. incubate the slides with biotinylated goat anti-mouse IgG in DaVinci Green at 1:500 dilution for 30 minutes; vi. rinse twice with TBS-AW. d). develop the staining; i. add ABC Elite and incubate the slides for 30 minutes; ii. rinse twice with TBS-AW; iii. apply Sigma Fast DAB solution for 5 minutes followed by a rinse in distilled water; iv. counterstain and coverslip the slides for analysis. […]
molecule,measurement,setting,value
B1,binding to MDA parental cells lacking STn,[1],No binding
B2,Average Weight,[2]; day 1 of study,17.1 g
same,Average Weight,[2]; day 4 of study,17.3 g
same,percent gain or loss over initial weight,[2]; day 4 of study,(1.7) %
same,Average Weight,[2]; day 6 of study,18.2 g
same,percent gain or loss over initial weight,[2]; day 6 of study,(6.9) %
same,Average Weight,[2]; day 8 of study,18.2 g
same,percent gain or loss over initial weight,[2]; day 8 of study,(6.5) %
same,Average Weight,[2]; day 11 of study,18.3 g
same,percent gain or loss over initial weight,[2]; day 11 of study,(7.3) %
same,Average Weight,[2]; day 13 of study,18.6 g
same,percent gain or loss over initial weight,[2]; day 13 of study,(8.9) %
same,Average Weight,[2]; day 15 of study,18.7 g
same,percent gain or loss over initial weight,[2]; day 15 of study,(9.9) %
same,Average Weight,[2]; day 18 of study,18.6 g
same,percent gain or loss over initial weight,[2]; day 18 of study,(9.0) %
same,Average Weight,[2]; day 20 of study,18.9 g
same,percent gain or loss over initial weight,[2]; day 20 of study,(10.8) %
same,Average Weight,[2]; day 22 of study,18.9 g
same,percent gain or loss over initial weight,[2]; day 22 of study,(11.1) %
same,Average Weight,[2]; day 26 of study,19.0 g
same,percent gain or loss over initial weight,[2]; day 26 of study,(11.7) %
same,Average Weight,[2]; day 27 of study,19.1 g
same,percent gain or loss over initial weight,[2]; day 27 of study,(11.9) %
same,Average Weight,[2]; day 29 of study,19.4 g
same,percent gain or loss over initial weight,[2]; day 29 of study,(14.0) %
same,Average Weight,[2]; day 32 of study,19.2 g
same,percent gain or loss over initial weight,[2]; day 32 of study,(12.6) %
same,Average Weight,[2]; day 34 of study,19.5 g
same,percent gain or loss over initial weight,[2]; day 34 of study,(14.2) %
same,Average Weight,[2]; day 36 of study,19.6 g
same,percent gain or loss over initial weight,[2]; day 36 of study,(14.8) %
same,Average Weight,[2]; day 39 of study,20.2 g
same,percent gain or loss over initial weight,[2]; day 39 of study,(18.7) %
same,Average Weight,[2]; day 41 of study,20.3 g
same,percent gain or loss over initial weight,[2]; day 41 of study,(19.2) %
same,percent gain in weight as compared to Paclitaxel and vehicle control,[2]; over the course of treatment,higher percent gain in weight
B3,"clinical observations of tumor shape, size and disposition",[3],fewer severe tumors with fluid secretion
same,"IHC staining pattern, cancerous tissues",[4],STn was present in most cancerous tissues
same,"IHC staining pattern, normal tissues",[4],STn expression was rare in normal tissues
